Data taken from patent publication US20250320286A1 (Janssen / Centocor, published 2025).
Positions count from the first letter of the chain named. Numbers in names are those of the source.

B1: BAMB246 (human IgG1 chimera) (antibody)
heavy: not shown
light: DVVMTQTPLTLSVTIGQPASISCKSSQSLLDSNGKTYLTWLLQRPGQSPKRLIYLVSKLDSGVPDRFTGSGAGTDFTLKIIRVEAEDLGVYYCWQGTHFPYTFGGGTKLEIKRTVAAPSVFIFPPSDEQLKSGTASVVCLLNNFYPREAKVQWKVDNALQSGNSQESVTEQDSKDSTYSLSSTLTLSKADYEKHKVYACEVTHQGLSSPVTKSFNRGEC
notes: Mouse variable regions on a human IgG1 constant region; also called BAMB246 (human chimeric parent)
B2: BAMB674 (antibody, human IgG1, kappa)
heavy: not shown
light: DVVMTQSPLSLPVTLGQPASISCKSSQSLLDSRAKTYLTWLQQRPGQSPRRLIYLVSKLDSGVPDRFSGSGSGTDFTLKISRVEAEDVGVYYCWQGTHFPYTFGGGTKLEIKRTVAAPSVFIFPPSDEQLKSGTASVVCLLNNFYPREAKVQWKVDNALQSGNSQESVTEQDSKDSTYSLSSTLTLSKADYEKHKVYACEVTHQGLSSPVTKSFNRGEC
notes: Lead HFA variant, wild type human IgG1; HCDR2 N55S; also called BAMAB674; BAMB31 HFA mAb, wild type IgG1
B3: BAMB675 (antibody, human IgG1, kappa)
heavy: QVQLVQSGAEVKKPGASVKVSCKASGHVFTSYDMYWVRQAPGQGLEWIGYIDSDSGDTSYNQKFKGRVTLTVDTSTSTVYMELSSLRSEDTAVYYCAYYRYAMDYWGQGTLVTVSSASTKGPSVFPLAPSSKSTSGGTAALGCLVKDYFPEPVTVSWNSGALTSGVHTFPAVLQSSGLYSLSSVVTVPSSSLGTQTYICNVNHKPSNTKVDKKVEPKSCDKTHTCPPCPAPELLGGPSVFLFPPKPKDTLYITREPEVTCVVVDVSHEDPEVKFNWYVDGVEVHNAKTKPREEQYNSTYRVVSVLTVLHQDWLNGKEYKCKVSNKALPAPIEKTISKAKGQPREPQVYTLPPSREEMTKNQVSLTCLVKGFYPSDIAVEWESNGQPENNYKTTPPVLDSDGSFFLYSKLTVDKSRWQQGNVFSCSVMHEALHNHYTQKSLSLSPGK
light: B2 light
notes: Same V regions as BAMB674 on IgG1 with M37Y, S39T, T41E in the Fc (numbering on GenBank AEV43323); also called BAMB31 HFA mAb, +YTE IgG1
B4: BAMB611 (antibody, human IgG1, kappa, V domains shown)
VH: QVQLVQSGAEVKKPGASVKVSCKASGHVFTSYDMYWVRQAPGQGLEWMGYIDSDNGDTSYNQKFKGRVTMTVDTSTSTVYMELSSLRSEDTAVYYCAYYRYAMDYWGQGTLVTVSS
VL: DVVMTQSPLSLPVTLGQPASISCKSSQSLLDSNGKTYLTWFQQRPGQSPRRLIYLVSKLDSGVPDRFSGSGSGTDFTLKISRVEAEDVGVYYCWQGTHFPYTFGGGTKLEIKR
notes: BAMB31 HFA variant, human IgG1
B5: BAMB612 (antibody, human IgG1, kappa, V domains shown)
VH: B4 VH with A40S, M48I, M70L
VL: B4 VL with N33R, G34A, F41L
notes: as for B4
B6: BAMB31_1 (antibody, mouse IgG1, V domains shown)
VH: EIQLQQSGPELVKPGTSVKVSCKASGHVFTSYDMYWVKQSHGKSLEWIGYIDSDNGDTSYNQKFKGKATLTVDKSSSTAYMHLNSLTSEDSAVYYCAYYRYAMDYWGQGTSVTVSS
VL: not shown
notes: Hybridoma antibody
B7: BAMB631 (antibody, human IgG1, kappa, V domains shown)
VH: B4 VH with G44S, M70L
VL: B4 VL with N33R, G34A, F41L, Q42L
notes: as for B4
B8: BAMB613 (antibody, human IgG1, kappa, V domains shown)
VH: B4 VH with M48I, R67K, M70L
VL: B4 VL with N33R, G34A, F41L
notes: as for B4
B9: BAMB623 (antibody, human IgG1, kappa, V domains shown)
VH: B4 VH with G44S, M48I, R67K, V68A
VL: B4 VL with N33R, G34A, F41L
notes: as for B4
B10: BAMB614 (antibody, human IgG1, kappa, V domains shown)
VH: B4 VH with M48I, M70L
VL: B4 VL with N33R, G34A, F41L
notes: as for B4
B11: BAMB630 (antibody, human IgG1, kappa, V domains shown)
VH: B4 VH with R38K, G44S, M48I, R67K, M70L
VL: B4 VL with N33R, G34A, F41L, Q42L
notes: as for B4
B12: BAMB701 (antibody, human IgG1, kappa)
heavy: B3 heavy
light: B2 light with L109V
B13: BAMB700 (antibody, human IgG1, kappa)
heavy: not shown
light: B2 light with G105Q

What follows are binders tested against fibronectin (assay: SPR; KD for this target divided by KD for human Aβ 3pE-28).
Method: (§1) In some instances, binding affinities and specificity of anti-Aβ 3pE mAbs were measured by SPR performed using different instruments (Biacore T200, Biacore 8K or MASS-2 (Biacore, Inc.)) and anti-human or anti-mouse immunoglobulin biosensor surfaces. Anti-human or anti-mouse immunoglobulin antibodies were covalently coupled to the surface of CM4 or CM5 sensor chips (GE Healthcare) using manufacturer instructions for amine-coupling chemistry. Antibodies of interest were captured on the anti-human or mouse immunoglobulin sensor chip to a level of 300-400 RU, followed by injection of Aβ peptides or proteins (examples: human Aβ 3pE-40(SEQ ID NO:40), Aβ 3pE-28 (SEQ ID NO:42), scrambled Aβ 3pE-28 (SEQ ID NO:44), Aβ 1-28 (SEQ ID NO:43), mouse Aβ 3pE-28 (SEQ ID NO:46), or Fibronectin) at various concentrations in HEPES Buffered Saline containing 0.005% surfactant P20 (Tween™ 20). The surface was regenerated with 2 pulses injections of 30 μL of 10 mM Gly pH1.5 at 100 μL/min. Data reported is the difference in SPR signal between the flow cell containing the captured antibody and a reference cell without captured antibody. Additional instrumental contributions to the signal were removed by subtraction of the data from the blank injection from the reference-subtracted signal. When applicable data were analyzed by fitting association and dissociation phases at all concentrations (global fit) with a 1:1 binding model using the Biaevaluation software (Biacore, Inc.). Otherwise the data was evaluated qualitatively for YES/NO binding.

Row | Binder | Fold Selectivity [fold]
1 | B1 | > 95000
2 | B2 | > 47000
3 | B3 | > 46000

The binders below were run against fibronectin (assay: SPR; no binding up to 1.2 µM).
Method: as §1

Row | Binder | Kd [nM]
4 | B1 | > 1200
5 | B2 | > 1200
6 | B3 | > 1200

Each binder was assayed against T1, 3pE Aβ peptide (antigen, form not stated) (assay: SPR; antigen peptide not named; range over the HFA variants).
T1 construct: also called the peptide

Row | Binder | Kd [nM]
7 | B4 | 1.52
8 | B5 | 0.0117

These binders were tested against human Aβ1-42 peptide (human) (assay: sandwich ELISA, BAMB31_1 coated, JRF/cAβ42/26-HRPO detection).
Sequence of human Aβ1-42 peptide (human) (peptide, as listed by the source): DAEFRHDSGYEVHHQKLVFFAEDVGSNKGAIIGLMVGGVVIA
Method: For the selected Aβ3pE monoclonal antibody BAMB31, the cross-reactivity with rodent Aβ3pE-40 (SEQ ID NO:45) and human Aβ1-40 (SEQ ID NO:41), Aβ1-42 (SEQ ID NO: 48), Aβ11pE-40(SEQ ID NO:49) and Aβ11pE-42 (SEQ ID NO:50) was evaluated using synthetic peptides. The combination BAMB31 +JRF/cAβ40/28-HRPO was used to investigate the cross-reactivity with Aβ1-40 (SEQ ID NO:41), Aβ11pE-40 (SEQID NO: 49) and rodent Aβ3pE-40 (SEQ ID NO:45), and the combination BAMB31+JRF/cAβ42/26-HRPO was used to investigate the cross-reactivity with Aβ1-42 (SEQ ID NO:48) and Aβ11pE-42 (SEQ ID NO:50). Concentrations up to 10,000 pg/mL were tested.
Materials and Methods: Standards were dissolved in dimethylsulphoxide (DMSO) (Sigma) at 0.1 mg/mL and stored at −80° C. For use in ELISA, peptides were further diluted in 0.1% casein in PBS down to 1 pg/mL. Ninety-six-well-plates (Maxisorb ELISA plates; NUNC) were coated overnight at 4° C. with monoclonal antibodies from BAMB31_1 at a concentration of 1.5 μg/mL in coating buffer. The next day, plates were washed and blocked with 0.1% casein in PBS for 1-4 hours at room temperature. Standards were incubated overnight at 4° C. together with HRPO-labeled secondary antibody (JRF/cAβ40/28-HRPO or JRF/cAβ42/26-HRPO). […]

Row | Binder | binding result
9 | B6 | no binding (tested: 10 ng/ml)

The binders below were run against T1, 3pE Aβ peptide (antigen, form not …) (assay: SPR; antigen peptide not named).

Row | Binder | Kd [nM]
10 | B7 | 0.018
11 | B4 | 1.52
12 | B8 | 0.0182
13 | B5 | 0.0117
14 | B9 | 0.0183
15 | B10 | 0.016
16 | B11 | 0.0383
17 | B1 | 0.0139

What follows are binders tested against 4U-3pE-beta-Amyloid (assay: SPR; 4U-3pE-beta-Amyloid 0.6 to 4.5 nM).

Row | Binder | Kd [nM] | koff [s⁻¹] | kon [M⁻¹ s⁻¹]
18 | B2 | 0.0401 | 0.000136 | 3.39e+06
19 | B12 | 0.0314 | 9.47e-05 | 3.01e+06
20 | B13 | 0.0342 | 9.86e-05 | 2.88e+06
21 | B3 | 0.0443 | 0.000166 | 3.74e+06
